Reference: PMC3002026 (The Journal of Cell Biology, 2010)

Target: the molecule itself
Assay: AUC

B1: Mdv1 CC^231–299 (domain or fragment, yeast)
chain: GPQTLVNSLEFLNIQKNSTLSEIRDIEVEVENLRQKKEKLLGKIANIEQNQLLLEDNLKQIDDRLDFLEEY
- stoichiometry N: 1.95
